Experimental data reported in paper PMC11550248.

Target: voltage-dependent anion-selective channel 1 (VDAC1), purified from rat liver mitochondria (rat) (UniProt Q9Z2L0)
Test: MST; VDAC1 (138 nM) or MAVS (105 nM) fluorescently labeled and kept constant, tested protein at different concentrations; 20mM Tris-HCl, 200mM NaCl, pH 8; 30 min at 37°C in the dark; Monolith NT.115, LED 20%, IR laser 80%

SARS-CoV-2 small envelope E-protein, purified (from UniProt P0DTC4 1-75) (natural protein)
C50 (half maximal binding): 1100 nM
